Laboratory results: patent US20220411483A1 (Chugai, published 2022)
Where a chain is given by its changes, count along the chain named.

T1: FcγRIIa R type extracellular domain, His tag (human, UniProt P12318 34-217)
T1 construct: extracellular domain; also called FcgRIIaR
T1 sequence (looked up): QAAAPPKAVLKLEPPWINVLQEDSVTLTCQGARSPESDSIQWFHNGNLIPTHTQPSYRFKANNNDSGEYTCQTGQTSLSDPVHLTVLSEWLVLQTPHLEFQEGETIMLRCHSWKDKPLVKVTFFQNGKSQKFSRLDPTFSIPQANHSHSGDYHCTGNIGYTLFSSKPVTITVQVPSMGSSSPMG

T2: FcγRIIa H type extracellular domain, His tag (human, UniProt P12318 34-217)
T2 construct: extracellular domain; also called FcgRIIaH
T2 sequence (looked up): T1 sequence (looked up) with R134H

T3: FcγRIIb extracellular domain, His tag (human, UniProt P31994 43-217)
T3 construct: extracellular domain; also called FcgRIIb
T3 sequence (looked up): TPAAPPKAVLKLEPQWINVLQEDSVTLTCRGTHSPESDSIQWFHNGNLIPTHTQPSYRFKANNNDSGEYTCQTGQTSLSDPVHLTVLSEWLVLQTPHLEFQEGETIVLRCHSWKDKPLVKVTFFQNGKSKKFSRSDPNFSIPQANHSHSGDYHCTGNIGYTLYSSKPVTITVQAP

T4: FcγRIIa R type extracellular domain with C-terminal His tag (human, UniProt P12318 34-217)
T4 construct: extracellular domain; also called FcgRIIaR; not shown: His tag at the C terminus
T4 sequence (looked up): T1 sequence (looked up)

T5: FcγRIIa H type extracellular domain with C-terminal His tag (human, UniProt P12318 34-217)
T5 construct: extracellular domain; also called FcgRIIaH; not shown: His tag at the C terminus
T5 sequence (looked up): T1 sequence (looked up) with R134H

T6: FcγRIIb extracellular domain with C-terminal His tag (human, UniProt P31994 43-217)
T6 construct: extracellular domain; also called FcgRIIb; not shown: His tag at the C terminus
T6 sequence (looked up): T3 sequence (looked up)

B1: IL6R-P737/IL6R-L (antibody, human IgG1, kappa)
heavy: QVQLQESGPGLVKPSETLSLTCAVSGHSISHDHAWSWVRQPPGEGLEWIGFISYSGITNYNPSLQGRVTISRDNSKNTLYLQMNSLRAEDTAVYYCARSLARTTAMDYWGEGTLVTVSSASTKGPSVFPLAPSSKSTSGGTAALGCLVKDYFPEPVTVSWNSGALTSGVHTFPAVLQSSGLYSLSSVVTVPSSSLGTQTYICNVNHKPSNTKVDKKVEPKSCDKTHTCPPCPAPELLGQDSVMLFPPKPKDTLMISRTPEVTCVVVDVSPEDPEVKFNWYVDGVEVHNAKTKPREEQENSTYRVVSVLTVLHQDWLNGKEYKCKVHNKALPHPIEKTISKAKGQPREPQVYTLPPSRDELTKNQVSLTCLVKGFYPSDIAVEWESNGQPENNYKTTPPVLDSDGSFFLYSKLTVDKSRWQQGNVFSCSVMHEALHNHYTQKSLSLSP
light: not shown
B2: IL6R-BP488/IL6R-L (antibody, human IgG1, kappa, name in EU numbering)
heavy: QVQLQESGPGLVKPSETLSLTCAVSGHSISHDHAWSWVRQPPGEGLEWIGFISYSGITNYNPSLQGRVTISRDNSKNTLYLQMNSLRAEDTAVYYCARSLARTTAMDYWGEGTLVTVSSASTKGPSVFPLAPSSKSTSGGTAALGCLVKDYFPEPVTVSWNSGALTSGVHTFPAVLQSSGLYSLSSVVTVPSSSLGTQTYICNVNHKPSNTKVDKKVEPKSCDKTHTCPPCPAPDLLGDDSVFLFPPKPKDTLMISRTPEVTCVVIDVAEEDGEVKFNWYVDGVEVHNAKTKPREEQDNSTYRVVSVLTVLHQDWLNGKEYKCKVSNKALPRPIEKTISKAKGQPREPQVYTLPPSRDELTKNQVSLTCLVKGFYPSDIAVEWESNGQPENNYKTTPPVLDSDGSFFLYSKLTVDKSRWQQGNVFSCSVMHEALHNHYTQESLSLSP
light: not shown
notes: human IgG1
B3: IL6R-BP510/IL6R-L (antibody, human IgG1, kappa, name in EU numbering)
heavy: B2 heavy with D235E, E274P, D298Y
light: not shown
notes: human IgG1
B4: IL6R-BP489/IL6R-L (antibody, human IgG1, kappa, name in EU numbering)
heavy: B2 heavy with P398M
light: not shown
notes: human IgG1
B5: IL6R-BP496/IL6R-L (antibody, human IgG1, kappa, name in EU numbering)
heavy: B2 heavy with R332A
light: not shown
notes: human IgG1
B6: IL6R-BP487/IL6R-L (antibody, human IgG1, kappa, name in EU numbering)
heavy: B2 heavy with D298Y, P398M
light: not shown
notes: human IgG1
B7: IL6R-BP491/IL6R-L (antibody, human IgG1, kappa, name in EU numbering)
heavy: B2 heavy with D235E
light: not shown
notes: human IgG1
B8: IL6R-BP554/IL6R-L (antibody, human IgG1, kappa, name in EU numbering)
heavy: B2 heavy with D235E, E274D, D298Y
light: not shown
notes: human IgG1
B9: IL6R-BP558/IL6R-L (antibody, human IgG1, kappa, name in EU numbering)
heavy: B2 heavy with D235E, A269G, E274D, D298Y
light: not shown
notes: human IgG1
B10: IL6R-BP438/IL6R-L (antibody, human IgG1, kappa, name in EU numbering)
heavy: B2 heavy with I266V, D298Y, I334T
light: not shown
notes: human IgG1

Molecular target: T7, FcγRIa extracellular domain, His tag (human, UniProt P12314 16-292)
T7 construct: whole entry named; also called FcgRIa
T7 sequence (P12314 16-292): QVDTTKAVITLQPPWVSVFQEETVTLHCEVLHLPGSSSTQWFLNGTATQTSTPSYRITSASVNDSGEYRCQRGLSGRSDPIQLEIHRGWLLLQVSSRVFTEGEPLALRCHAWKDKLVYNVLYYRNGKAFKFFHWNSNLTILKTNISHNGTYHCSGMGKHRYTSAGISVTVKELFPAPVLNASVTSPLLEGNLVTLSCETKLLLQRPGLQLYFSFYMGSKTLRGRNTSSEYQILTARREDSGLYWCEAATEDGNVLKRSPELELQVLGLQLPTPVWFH
Experiment: SPR, KD ratio

Relative FcgRIa-binding Activity | Binder
0.002 fold of IL6R-G1d/IL6R-L | B1

Molecular target: T1, FcγRIIa R type extracellular domain, …
Experiment: SPR, KD ratio

Relative FcgRIIaR-binding Activity | Binder
0.011 fold of IL6R-G1d/IL6R-L | B1

Molecular target: T2, FcγRIIa H type extracellular domain, …
Experiment: SPR, KD ratio

Relative FcgRIIaH-binding Activity | Binder
0.006 fold of IL6R-G1d/IL6R-L | B1

Molecular target: T3, FcγRIIb extracellular domain, His tag
Experiment: SPR, KD ratio

Relative FcgRIIb-binding Activity | Binder
0.802 fold of IL6R-G1d/IL6R-L | B1

Molecular target: T8, FcγRIIIa V type extracellular domain, His tag (human, UniProt P08637 17-208)
T8 construct: extracellular domain; also called FcgRIIIaV
T8 sequence (P08637 17-208 F176V): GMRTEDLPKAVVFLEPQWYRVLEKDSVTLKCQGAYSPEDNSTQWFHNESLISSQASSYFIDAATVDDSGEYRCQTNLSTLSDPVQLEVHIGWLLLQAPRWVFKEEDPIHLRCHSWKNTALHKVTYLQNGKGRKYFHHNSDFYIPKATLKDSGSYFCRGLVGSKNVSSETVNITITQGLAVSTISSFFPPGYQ
Experiment: SPR, KD ratio

Relative FcgRIIIaV-binding Activity | Binder
0.005 fold of IL6R-G1d/IL6R-L | B1

Molecular target: T9, FcγRIa extracellular domain with C-terminal His tag (human, UniProt P12314 16-292)
T9 construct: also called FcgRIa; CD64; not shown: His tag at the C terminus
T9 sequence (P12314 16-292): as the sequence (P12314 16-292) above
Experiment: SPR, antibody captured, FcgR analyte

Kd [nM] | Binder
2.2 | B2
6 | B3
1.3 | B4
1.2 | B5
1.2 | B6
5.3 | B7
8 | B8

Molecular target: T4, FcγRIIa R type extracellular domain …
Experiment: SPR, antibody captured, FcgR analyte

Kd [nM] | Binder
74 | B2
330 | B9
43 | B4
470 | B5
39 | B6
120 | B7
180 | B10

Molecular target: T5, FcγRIIa H type extracellular domain …
Experiment: SPR, antibody captured, FcgR analyte

Kd [nM] | Binder
1600 | B2
4000 | B3
4900 | B9
870 | B4
3700 | B5
840 | B6
2200 | B7
2300 | B8
1600 | B10

Molecular target: T6, FcγRIIb extracellular domain with …
Experiment: SPR, antibody captured, FcgR analyte

Kd [nM] | Binder
1.9 | B2
3.8 | B3
9 | B9
1 | B4
18 | B5
1.2 | B6
3 | B7

Molecular target: T1, FcγRIIa R type extracellular domain, …
Experiment: SPR, bound amount per captured antibody

Relative FcgRIIaR-binding Activity | Binder
7.2 % of IL6R-G1d/IL6R-L | B1

Molecular target: T3, FcγRIIb extracellular domain, His tag
Experiment: SPR, bound amount per captured antibody

Relative FcgRIIb-binding Activity | Binder
99.5 % of IL6R-G1d/IL6R-L | B1

Molecular target: T4, FcγRIIa R type extracellular domain …
Experiment: SPR; KD of IL6R-B3/IL6R-L divided by KD of variant

Relative FcgRIIaR-binding Activity | Binder
14.6 | B2
25.2 | B4
2.3 | B5
27.8 | B6
9.2 | B7

Molecular target: T6, FcγRIIb extracellular domain with …
Experiment: SPR; KD of IL6R-B3/IL6R-L divided by KD of variant

Relative FcgRIIb-binding Activity | Binder
1670 | B2
3090 | B4
168 | B5
2690 | B6
1020 | B7
